Here are results for two molecules from paper PMC10464304, “Refined read‐out: The hUHRF1 Tandem‐Tudor domain prefers binding to histone H3 tails containing K4me1 in the context of H3K9me2/3” (Protein Science : A Publication of the Protein Society, 2023).

Assay in all cases: fluorescence polarisation; fluorescence anisotropy titration; 100 nM FITC-labeled peptide in the cuvette, protein added stepwise; 23°C; 100 mM KCl, 20 mM HEPES pH 7.5, 10% v/v glycerol
Common to all, as to conditions: both partners purified
On the technique in general: Fluorescence polarisation rises when a labelled molecule tumbles more slowly, as on binding a larger partner.

Test [1] has as its target T1, GST-hUHRF1-TTD (126-280) D142E (human, UniProt Q96T88 126-280, D142E).
T1 construct: Tandem Tudor domain (TTD) of human UHRF1, UniProt Q96T88, residues 126-280; source: E. coli, purified (Glutathione Agarose 4B); not shown: GST, N-terminal, kept
T1 sequence (looked up): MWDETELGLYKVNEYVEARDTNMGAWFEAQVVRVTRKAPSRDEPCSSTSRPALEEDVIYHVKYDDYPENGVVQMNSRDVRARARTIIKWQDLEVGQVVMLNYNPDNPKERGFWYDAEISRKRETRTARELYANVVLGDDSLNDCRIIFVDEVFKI

The target in test [2] is T2, GST-hUHRF1-TTD (126-280) R207L (human, UniProt Q96T88 126-280, R207L).
T2 construct: Tandem Tudor domain (TTD) of human UHRF1, UniProt Q96T88, residues 126-280; source: E. coli, purified (Glutathione Agarose 4B); not shown: GST, N-terminal, kept
T2 sequence (looked up): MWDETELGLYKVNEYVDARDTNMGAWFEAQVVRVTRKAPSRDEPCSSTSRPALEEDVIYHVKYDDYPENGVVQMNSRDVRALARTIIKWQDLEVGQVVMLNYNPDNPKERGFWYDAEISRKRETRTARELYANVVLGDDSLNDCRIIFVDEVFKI

For test [3], the target named is T3, GST-hUHRF1-TTD (126-280) R207A (human, UniProt Q96T88 126-280, R207A).
T3 construct: Tandem Tudor domain (TTD) of human UHRF1, UniProt Q96T88, residues 126-280; source: E. coli, purified (Glutathione Agarose 4B); not shown: GST, N-terminal, kept
T3 sequence (looked up): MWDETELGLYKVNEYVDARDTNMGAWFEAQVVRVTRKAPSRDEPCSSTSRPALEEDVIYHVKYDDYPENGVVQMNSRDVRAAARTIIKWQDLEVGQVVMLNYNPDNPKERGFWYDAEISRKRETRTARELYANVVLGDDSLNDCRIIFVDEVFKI

In test [4] the target is T4, GST-hUHRF1-TTD (126-280) E153Q (human, UniProt Q96T88 126-280, E153Q).
T4 construct: Tandem Tudor domain (TTD) of human UHRF1, UniProt Q96T88, residues 126-280; source: E. coli, purified (Glutathione Agarose 4B); not shown: GST, N-terminal, kept
T4 sequence (looked up): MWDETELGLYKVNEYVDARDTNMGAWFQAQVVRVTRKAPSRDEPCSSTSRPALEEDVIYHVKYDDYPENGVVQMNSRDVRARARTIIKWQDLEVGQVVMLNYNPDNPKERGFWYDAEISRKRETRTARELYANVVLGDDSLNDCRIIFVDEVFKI

Test [5] has as its target T5, GST-hUHRF1-TTD (126-280) R207Q (human, UniProt Q96T88 126-280, R207Q).
T5 construct: Tandem Tudor domain (TTD) of human UHRF1, UniProt Q96T88, residues 126-280; source: E. coli, purified (Glutathione Agarose 4B); not shown: GST, N-terminal, kept
T5 sequence (looked up): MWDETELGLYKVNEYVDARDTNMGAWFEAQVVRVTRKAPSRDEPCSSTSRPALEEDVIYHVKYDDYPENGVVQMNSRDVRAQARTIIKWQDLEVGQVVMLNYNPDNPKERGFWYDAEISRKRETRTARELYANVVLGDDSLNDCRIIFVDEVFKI

Test [6] has as its target T6, GST-fused Tandem-Tudor domain (TTD) of human UHRF1, residues 126-280, wild type (human, UniProt Q96T88 126-280).
T6 construct: Tandem Tudor domain (TTD) of human UHRF1, UniProt Q96T88, residues 126-280; borders as in Rothbart et al., 2012; also called hUHRF1-TTD; UHRF1-TTD; source: E. coli, purified (Glutathione Agarose 4B); not shown: GST, N-terminal, kept
T6 sequence (looked up): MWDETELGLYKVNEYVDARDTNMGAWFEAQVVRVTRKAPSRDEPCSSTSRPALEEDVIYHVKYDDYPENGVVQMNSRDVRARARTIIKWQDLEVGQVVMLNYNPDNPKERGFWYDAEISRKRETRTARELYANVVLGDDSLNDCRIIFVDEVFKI

Test [7] addresses T7, GST-hUHRF1-TTD (126-280) D142A (human, UniProt Q96T88 126-280, D142A).
T7 construct: Tandem Tudor domain (TTD) of human UHRF1, UniProt Q96T88, residues 126-280; also called TTD D142A mutant; source: E. coli, purified (Glutathione Agarose 4B); not shown: GST, N-terminal, kept
T7 sequence (looked up): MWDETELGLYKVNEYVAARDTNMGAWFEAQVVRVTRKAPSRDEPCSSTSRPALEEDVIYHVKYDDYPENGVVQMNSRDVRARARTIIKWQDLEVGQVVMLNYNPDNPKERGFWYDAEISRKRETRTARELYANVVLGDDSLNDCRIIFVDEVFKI

Test [8] deals with T8, GST-hUHRF1-TTD (126-280) M224A (human, UniProt Q96T88 126-280, M224A).
T8 construct: Tandem Tudor domain (TTD) of human UHRF1, UniProt Q96T88, residues 126-280; source: E. coli, purified (Glutathione Agarose 4B); not shown: GST, N-terminal, kept
T8 sequence (looked up): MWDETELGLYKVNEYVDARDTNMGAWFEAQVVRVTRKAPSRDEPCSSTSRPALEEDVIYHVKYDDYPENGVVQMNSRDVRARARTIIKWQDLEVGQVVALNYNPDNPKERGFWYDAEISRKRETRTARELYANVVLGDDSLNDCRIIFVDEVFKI

Test [9] deals with T9, GST-hUHRF1-TTD (126-280) F278A (human, UniProt Q96T88 126-280, F278A).
T9 construct: Tandem Tudor domain (TTD) of human UHRF1, UniProt Q96T88, residues 126-280; source: E. coli, purified (Glutathione Agarose 4B); not shown: GST, N-terminal, kept
T9 sequence (looked up): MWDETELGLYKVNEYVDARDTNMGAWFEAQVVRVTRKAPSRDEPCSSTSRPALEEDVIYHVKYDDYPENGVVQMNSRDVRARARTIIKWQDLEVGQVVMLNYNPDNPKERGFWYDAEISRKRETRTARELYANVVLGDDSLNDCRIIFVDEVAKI

The target in test [10] is T10, GST-hUHRF1-TTD (126-280) E153D (human, UniProt Q96T88 126-280, E153D).
T10 construct: Tandem Tudor domain (TTD) of human UHRF1, UniProt Q96T88, residues 126-280; also called TTD E153D; source: E. coli, purified (Glutathione Agarose 4B); not shown: GST, N-terminal, kept
T10 sequence (looked up): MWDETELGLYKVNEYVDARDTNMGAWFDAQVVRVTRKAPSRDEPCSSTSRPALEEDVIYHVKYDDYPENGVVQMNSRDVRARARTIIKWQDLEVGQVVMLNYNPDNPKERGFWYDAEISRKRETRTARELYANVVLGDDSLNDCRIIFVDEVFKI

Test [11] deals with T11, GST-hUHRF1-TTD (126-280) D142N (human, UniProt Q96T88 126-280, D142N).
T11 construct: Tandem Tudor domain (TTD) of human UHRF1, UniProt Q96T88, residues 126-280; source: E. coli, purified (Glutathione Agarose 4B); not shown: GST, N-terminal, kept
T11 sequence (looked up): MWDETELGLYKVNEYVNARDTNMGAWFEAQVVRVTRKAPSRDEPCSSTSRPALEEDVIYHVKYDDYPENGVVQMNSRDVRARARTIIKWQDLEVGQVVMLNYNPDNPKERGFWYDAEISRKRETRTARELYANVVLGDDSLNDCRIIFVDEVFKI

Test [12] deals with T12, GST-hUHRF1-TTD (126-280) R207E (human, UniProt Q96T88 126-280, R207E).
T12 construct: Tandem Tudor domain (TTD) of human UHRF1, UniProt Q96T88, residues 126-280; also called TTD R207E; source: E. coli, purified (Glutathione Agarose 4B); not shown: GST, N-terminal, kept
T12 sequence (looked up): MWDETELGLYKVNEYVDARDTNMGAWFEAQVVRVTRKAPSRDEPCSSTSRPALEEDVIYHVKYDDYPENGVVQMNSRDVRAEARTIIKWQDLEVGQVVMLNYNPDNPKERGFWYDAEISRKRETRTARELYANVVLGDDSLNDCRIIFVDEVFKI

For test [13], the target named is T13, GST-hUHRF1-TTD (126-280) R207H (human, UniProt Q96T88 126-280, R207H).
T13 construct: Tandem Tudor domain (TTD) of human UHRF1, UniProt Q96T88, residues 126-280; source: E. coli, purified (Glutathione Agarose 4B); not shown: GST, N-terminal, kept
T13 sequence (looked up): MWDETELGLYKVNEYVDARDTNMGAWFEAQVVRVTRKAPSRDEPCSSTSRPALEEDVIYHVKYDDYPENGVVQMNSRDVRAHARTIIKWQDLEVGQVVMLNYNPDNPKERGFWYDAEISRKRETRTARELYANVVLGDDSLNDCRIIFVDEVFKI

The target in test [14] is T14, GST-hUHRF1-TTD (126-280) E153A (human, UniProt Q96T88 126-280, E153A).
T14 construct: Tandem Tudor domain (TTD) of human UHRF1, UniProt Q96T88, residues 126-280; also called E153A TTD mutant; source: E. coli, purified (Glutathione Agarose 4B); not shown: GST, N-terminal, kept
T14 sequence (looked up): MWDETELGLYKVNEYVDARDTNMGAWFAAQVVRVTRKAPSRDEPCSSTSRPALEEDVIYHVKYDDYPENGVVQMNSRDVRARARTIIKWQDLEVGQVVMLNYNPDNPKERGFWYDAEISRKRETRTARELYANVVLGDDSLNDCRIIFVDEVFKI

No end group written: not given here. Me3 = trimethyl (trimethyl-lysine)

B1: FITC-labeled H3(1-19) peptide with K4me1 and K9me3 (peptide, UniProt P68431 2-20, looked up)
peptide: ARTK(Me)QTARK(Me3)STGGKAPRKQ
modifications: also: FITC-labeled (position not given here)
notes: histone H3 N-terminal tail, residues 1-19; also called H3K4me1-K9me3; H3 K4me1-K9me3
On to B1, for which the Kd (usually the equilibrium constant for the complex coming apart) was found to be 580 nM in test [1]; 440 nM in [2]; 370 nM in [3]; 250 nM in test [4]; 390 nM in [5]; 240 nM in [6]. For the same molecule, the Kd is 2700 nM in test [7]; 430 nM in [8]; 3900 nM in test [9]; 50 nM in [10]; 2 nM in test [11]; 270 nM in [12]. For the same molecule, the values for the Kd in test [13] and in test [14] were 460 nM and 2 nM, respectively.

B2: FITC-labeled H3(1-19) peptide with K9me3 (peptide, UniProt P68431 2-20, looked up)
peptide: ARTKQTARKSTGGKAPRKQ
modifications: K9me3 (trimethyl-lysine at 9); FITC-labeled
notes: histone H3 N-terminal tail, residues 1-19; also called H3K9me3; H3 K9me3
On to B2, for which the equilibrium dissociation constant (Kd) in test [2] and in [3] was 900 nM in each case.
